Assay results: the supplement of paper PMC9170038

Tested on: MS2 coat protein
Test: apparent KD of MS2 coat protein; designed switch direction (-1 OFF switch, 1 ON switch): -1; higher = weaker reporter binding
Procedure, shortened: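 Normalised cluster fluorescence was curve-fitted, and each design's median over clusters is its apparent KD. Before this, SNAP-549-labelled MS2 coat protein was titrated from 0.7 or 1.5 nM, doubling to 3 µM, over RNA switches transcribed on Illumina chips by stalled E. coli RNA polymerase. Titrations had no input, 200 uM small-molecule ligand, or an oligonucleotide input, and steps lasted 0.8–1.5 h (lowest) to 10–20 min (highest).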

[1] = input ligand: microRNA oligo, concentration not stated
[2] = Eterna round: R95, input ligand: FMN 200 uM
[3] = Eterna round: R95, input ligand: microRNA oligo, concentration not stated
[4] = Eterna round: R95, input ligand: none

Sequence	apparent KD of MS2 coat protein (input ligand: FMN 200 uM) [µM]	apparent KD of MS2 coat protein [1] [µM]	apparent KD of MS2 coat protein (input ligand: none) [µM]	apparent KD of MS2 coat protein [2] [µM]	apparent KD of MS2 coat protein [3] [µM]	apparent KD of MS2 coat protein [4] [µM]
CUGCUGGAGCUUUGCUUUGGUCGUACAUGAGGAUCACCCAUGUAGGAUAUGGUAAGAUUUGCUUGCUAGAAGGAUAGAGUGGUC [salish99_ExNG3_r04_611] (Eterna round: R96, puzzle: Exclusion NG 3)	0.0809	0.0782	0.0497			
CUGCUGGAGCUUUGCUUUGGUCGUACAUGAGGAUCACCCAUGUAGGAUAUGGUAGGCUUUGCUUACUAGAAGGAUAGAGUGGUC [salish99_ExNG3_r04_608] (Eterna round: R96, puzzle: Exclusion NG 3)	0.16	0.0764	0.0864			
CUGGCUUAGAGAGGAUAUGACAUUCAAGCCUACCCUGGCCACGGGCCACAUGAGGAUCACCCAUGUCAGAAGGCUCAGGCCAGA [Enorri] (Eterna round: R96, puzzle: Exclusion NG 2)	0.0617	0.0255	0.0328			
CUGGGCGGAGGAUAUACAGGUUUAAUAUAAAUUAAAUUGGGACAUGAGGAUCACCCAUGUAGAAGGUUGUUUAG [-13.6, -11.8 kcal, 32% A] (Eterna round: R97, puzzle: Exclusion 2)	0.0234		0.0221			
CUGGUCCGAGGAUAUAUGAUGUGAAACAUGAGGAUCACCCAUGUAAUAUUAUGGAAGUAAAUAGAAGGCGGACUAG [Mat - Exclusion 5 - JL mod - D34] (puzzle: Exclusion 5)				0.0286	0.0495	0.037
CUGGUCCGAGGAUAUAUUAAGUGAAACAUGAGGAUCACCCAUGUUAUUUAAUGGAUGUAAAUAGAAGGCGGACUAG [JL-ex5-3.12] (puzzle: Exclusion 5)				0.0299	0.037	0.0428
CUGGUCCGAGGAUAUAUUAAGUGAAACAUGAGGAUCACCCAUGUUAUUUGAUGGAAGAAAAUAGAAGGCGGACUAG [Mat - Exclusion 5 - JL mod - D59] (puzzle: Exclusion 5)				0.0299	0.0869	0.0625
CUGUACUGAGGAUAUACAUGAGGAUCACCCAUGUGAUGUAGUGCACGCGUACGUGUACGUAGAAGGCAGUACAG [Mat - Exclusion 3 - Eli Mod - D41] (Eterna round: R97, puzzle: Exclusion 3)	0.054		0.0203			
CUGUACUGAGGAUAUACAUGAGGAUCACCCAUGUGAUUCAGUGCACGCGUACGUGUACGUAGAAGGCAGUACAG [Mat - Exclusion 3 - Eli Mod - D37] (Eterna round: R97, puzzle: Exclusion 3)	0.75		0.0425			
CUGUACUGAGGAUAUACAUGAGGAUCACCCAUGUGCUUCAGCUAGGAAACUAGCAAAGGUAGAAGGCAGUACAG [Mat - Exclusion 3 - Eli Mod - D58] (Eterna round: R97, puzzle: Exclusion 3)	0.109		0.0145			
CUGUGCACGCUGCGAUCCUACAUGAGGAUCACCCAUGUGGUCUGGUGGCGUGGGUCACCGGACUUGGCUCGUCUUGG [salish99_S_TOV1_R5_078] (Eterna round: R97, puzzle: Sensor, turn-off variant 1)	0.129		0.15			
CUGUGCACGCUGCGAUCCUACAUGAGGAUCACCCAUGUGGUCUGGUGGCGUGGGUCACCGGACUUGGCUCGUCUUGU [salish99_S_TOV1_R5_079] (Eterna round: R97, puzzle: Sensor, turn-off variant 1)	0.079		0.0907			
CUGUGCACGCUGCGGUCCUACAUGAGGAUCACCCAUGUGGUCUGGUGGCGUGGGUCACCGGACUUGGCUCGUCUUGU [salish99_S_TOV1_R5_064] (Eterna round: R97, puzzle: Sensor, turn-off variant 1)	0.0357		0.0423			
CUGUGUAGACAGGAUAUGCUGUACAAAAGUACAGCAGAAGGGUCUACAUGAGGAUCACCCAUGUAUACUUCAUG [)mei Ex6 B24] (Eterna round: R97, puzzle: Exclusion 6)	0.391		0.92			
CUGUGUAGACAGGAUAUGCUGUACAAAAGUACAGCAGAAGGGUCUACAUGAGGAUCACCCAUGUGUACCUCAUG [)mei Ex6 B26] (Eterna round: R97, puzzle: Exclusion 6)	0.0212		0.106			
CUGUUUUUCGCAGGAUAUGCUCCUCCAUUAUUUGCAGAAGGGCGUUAAACAUGAGGAUCACCCAUGUAUGGUAAUGACUAUUUC [JR_ExcNG1_Sub065] (Eterna round: R96, puzzle: Exclusion NG 1)	0.125	0.0436	0.0407			
CUGUUUUUCGCAGGAUAUGCUUCUCCUUUAUUAGCAGAAGGGCGUUAAACAUGAGGAUCACCCAUGUAUGGUAAUGAUAUUUUC [JR_ExcNG1_Sub060] (Eterna round: R96, puzzle: Exclusion NG 1)	0.145	0.0523	0.0558			

Sequence	apparent KD of MS2 coat protein (input ligand: FMN 200 uM) [µM]	apparent KD of MS2 coat protein [1] [µM]	apparent KD of MS2 coat protein (input ligand: none) [µM]	apparent KD of MS2 coat protein [2] [µM]	apparent KD of MS2 coat protein [3] [µM]	apparent KD of MS2 coat protein [4] [µM]
CUUAGACAUGAGGAUCACCCAUGUGAGGAUAUGAAAUUAAUUAAUUAUUAAUUAUUAAUCAGAAGGCACAUAUG [Mat - Mod of Hyphema D38] (puzzle: Exclusion 1)				0.0798	0.0436	0.0413
CUUAGACAUGAGGAUCACCCAUGUGAGGAUAUGAUGCGAAUAAGUAAGUAAUAAAGCAUCAGAAGGCACAUAUG [Mat - Mod of Hyphema D28] (puzzle: Exclusion 1)				0.235	0.186	0.222
CUUAGACAUGAGGAUCACCCAUGUGAGGAUAUGAUGCGAUCGUCGAAAGACGAUAGCAUCAGAAGGUACAAAUG [Fiskers Ex 1 - 21] (puzzle: Exclusion 1)					0.0905	
CUUAUGUGAGGAUAUCAGUAGUGAUACGAUAGUAUUACUGCUGAGAAGGUACAUGAGGAUCACCCAUGUUCCUC [Exclusion 4 - Mod Omei Ex4 344 mod 4 v.1] (puzzle: Exclusion 4)					0.0162	
CUUAUGUGAGGAUAUGCCUGGCCGUGAGGCCAAAUUUAUAAGCAGAAGGCACAUGAGGAUCACCCAUGUGCGGG [jl-ex4-4.69 ViennaUCT mod] (Eterna round: R97, puzzle: Exclusion 4)	0.115		0.317			
CUUCACCCACCAGAGCUCACCCACAUACCAGCUCUGGUGACAUGAGGAUCACCCAUGUUUUUUGCCCGUCUUAUCUU [Intibima] (Eterna round: R96, puzzle: Sensor v3, turn-off variant 2)	0.065	0.218	0.0791			
CUUCACCCACCAGAGCUCACCCACAUACCAGCUCUGGUGACAUGAGGAUCACCCAUGUUUUUUGCCCGUCUUAUCUU [Intibima] (puzzle: Sensor v3, turn-off variant 2)				0.0413	0.189	0.0468
CUUCACCCACCAGAGCUCACCCACAUACCUACUCAGGUGACAUGAGGAUCACCCAUGUUUUUUGCCCGUCUUAUCUU [Vexebedi] (Eterna round: R96, puzzle: Sensor v3, turn-off variant 2)	0.0344	0.174	0.0375			
CUUCACCCACCAGAGCUCACCCACAUACCUACUCAGGUGACAUGAGGAUCACCCAUGUUUUUUGCCCGUCUUAUCUU [Vexebedi] (puzzle: Sensor v3, turn-off variant 2)				0.0283	0.216	0.0304
CUUCGUAUAGAGGAUAUAGGAUACGAAAGUGUCCUAGAAGGCUGUACAUGAGGAUCACCCAUGUACUUCAGAUC [Exclusion 6 - B - 14:e] (puzzle: Exclusion 6)					0.0117	
CUUGAGUGACAAGCUUUUUGCUCGUCUGUUAUUGAUGCUACAUGAGGAUCACCCAUGUUUAAGAUGUGUGAGGAUGG [JR_SV3TOV2_Sub054] (puzzle: Sensor v3, turn-off variant 2)				0.0367	0.0489	0.0356
CUUGUUUAUGUAGGAUAUGCCUGGCGUGCCUUUGCAGAAGGACAUGAGGAUCACCCAUGUAACAUGAGGCUAACCCUUGUCGCC [salish99_ExNG1_r04_118] (Eterna round: R96, puzzle: Exclusion NG 1)	0.0867	0.0657	0.096			
CUUUACAUGCUAAGAUCCUACAUGAGGAUCACCCAUGUGGUCCGGUGACGUGAGUCACCGGACUUAGCUCGUCUUGU [salish99_S_TOV1_R5_097] (Eterna round: R97, puzzle: Sensor, turn-off variant 1)	0.0832		0.119			
CUUUAGCAGGUAGGAUAUACGAAGUGUCGGCGAGUAGAAGGACCUGCGAUCCACUUGAGGAUCACCCAAGUUCGCAGGAGAACA [Mutated MS2 EX1.10] (Eterna round: R96, puzzle: Exclusion NG 1)	0.103	0.0356	0.0508			
CUUUCGUGAGGAUAUGUGGCUUCGAUCGUGAGAUCGAGGCAACAGAAGGCACAUGAGGAUCACCCAUGUUCCUC [salish99_ex4_r4_207] (Eterna round: R97, puzzle: Exclusion 4)	0.546		0.0405			
CUUUGAUGAGGAUAUCGAGGUUAGUACAUGAGGAUCACCCAUGUUAUCCAGGUGUCGGUUCGAGAAGGUAUUGGAC [LRO-Ex5-17] (puzzle: Exclusion 5)					0.0156	
